Experimental data reported in patent US20180273621A1 (AstraZeneca / MedImmune, published 2018).
Residue numbers refer to the chain shown, from its start. Each block holds one binder with its values, some of them ahead of it.

Experiments:
human CD19 antigen [1] = biological target: T1, human CD19 antigen (human, UniProt P15391 20-556); test: cell based ELISA on 300B4 cells expressing recombinant human CD19, OD450
T1 construct: whole, on cells; also called hCD19; recombinant human CD19
T1 sequence (looked up): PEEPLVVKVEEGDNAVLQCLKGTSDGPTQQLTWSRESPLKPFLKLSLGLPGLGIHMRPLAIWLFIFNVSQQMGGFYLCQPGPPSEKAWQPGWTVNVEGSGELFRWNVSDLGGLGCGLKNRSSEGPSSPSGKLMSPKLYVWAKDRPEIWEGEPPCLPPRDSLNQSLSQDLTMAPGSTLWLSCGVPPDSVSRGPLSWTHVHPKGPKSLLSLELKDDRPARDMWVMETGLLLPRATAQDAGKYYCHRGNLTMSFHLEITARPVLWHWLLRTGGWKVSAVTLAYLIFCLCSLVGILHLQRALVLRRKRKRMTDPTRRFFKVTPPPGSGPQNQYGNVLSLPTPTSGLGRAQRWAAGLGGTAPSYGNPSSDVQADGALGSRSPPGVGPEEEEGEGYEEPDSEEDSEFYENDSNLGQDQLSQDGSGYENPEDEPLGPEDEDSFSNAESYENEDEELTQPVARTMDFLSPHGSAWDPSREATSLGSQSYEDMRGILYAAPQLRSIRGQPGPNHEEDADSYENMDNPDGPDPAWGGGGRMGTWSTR
Experimental: (§1) 300B4 cells were cultured according to standard protocols in RPMI 1640 medium containing L-glutamine and supplemented with 10% Fetal Calf Serum, β-mercaptoethanol in the presence of 1 mg/ml G418. A standard ELISA protocol can be used for the cell based CD19 binding assay. […] Binding reactions are performed in triplicates for each antibody concentration tested. Negative control wells using an isotype matched antibody of irrelevant specificity should be included in the assay. Following incubation with the antibody 300B4 cells are washed three times with 200 micro liter of ELISA buffer. The amount of chimeric, humanized, or human anti-CD19 antibodies bound to 300B4 cells can be detected using a goat anti-human kappa antibody conjugated with horseradish peroxidase according to standard protocols.
An isotype matched human antibody of irrelevant specificity was included in the assay as a negative control.

human CD19 antigen [2] = biological target: T1, human CD19 antigen; test: as above; remark: listed apart in the source
Experimental: as §1

human CD19 antigen [3] = biological target: T1, human CD19 antigen; test: cell-based or functional assay
human CD19 antigen [4] = biological target: T1, human CD19 antigen; test: cell based ECL binding assay (Meso Scale Discovery; Lu et al. 2006) on 300B4 cells as titled on the sheet, Fab supernatant, signal in Units
Experimental: (§2) CDR specific phage display libraries were generated as described above. Libraries were screened by testing a large number of phage clones (approximately 400 clones per library) in single point cell based binding assay (Lu et al., J. Immunol. Methods 314:74-79 (2006)). Reagents and disposables were purchased from Meso Scale Discovery; assays were performed following the manufacturer's instructions.
(§3) Combinatorial phage display libraries were prepared as described above. Individual Fab clones from the combinatorial library were tested for binding to 300B4 and Raji cells (Lu et al., J. Immunol. Methods 314:74-79 (2006)).

human CD19 antigen [5] = biological target: T1, human CD19 antigen; test: cell based ECL binding assay (Meso Scale Discovery; Lu et al. 2006) on 300B4 cells expressing recombinant human CD19, Fab supernatant, signal in Units
Experimental: as §2

human CD19 antigen [6] = biological target: T1, human CD19 antigen; test: cell based ECL binding assay (Meso Scale Discovery; Lu et al. 2006) on Raji cells as titled on the sheet, Fab supernatant, signal in Units
Experimental: as §2, §3

B3: 6C11 affinity matured Fab (Fab, V domains shown)
VH: EVQLVESGGGLVQPGGSLRLSCAASGFTFSSVWMNWVRQAPGKGLEWVGRIYLGDGDTNYNVKFKGRFTISRDDSKNSLYLQMNSLKTEDTAVYYCARSGFITTVRDFDYWGQGTLVTVSS
VL: EIVLTQSPDFQSVTPKEKVTITCRASESVDTFGISFMNWFQQKPDQSPKLLIHEASNPGSGVPSRFSGSGSGTDFTLTINSLEAEDAATYYCQQTKRVPFTFGGGTKVEIK
notes: Fab
EC50 (read off the curve) (human CD19 antigen [4]): ~500 ng/mL

B4: 5C4 affinity matured Fab (Fab, V domains shown)
VH: B3 VH with L53P
VL: B3 VL with D30I, M37I, G59Y, Q93A
notes: Fab
EC50 (read off the curve) (human CD19 antigen [4]): ~400 ng/mL

B5: 16C4 Fab (Fab, V domains shown)
VH: B3 VH with V32S, L53P
VL: B3 VL with P58Q, T95S, R97E
notes: Fab with human γ1 CH1 and human kappa constant domain; also called Clone 16C4; 16C4sup
EC50 (read off the curve) (human CD19 antigen [5]): ~1000 ng/mL

B7: 16C4 affinity matured anti-CD19 IgG antibody (antibody, V domains shown)
VH: B3 VH with V32S, L53P
VL: B3 VL with P58Q, T95S, R97E
% max. cell kill at 10 ug/ml, DB target cells (human CD19 antigen [3]): 6% | % max. cell kill at 10 ug/ml, Daudi target cells (human CD19 antigen [3]): 16% | % max. cell kill at 10 ug/ml, Farage target cells (human CD19 antigen [3]): 13% | % max. cell kill at 10 ug/ml, Granta-519 target cells (human CD19 antigen [3]): 0% | % max. cell kill at 10 ug/ml, Karpas-422 target cells (human CD19 antigen [3]): 6% | % max. cell kill at 10 ug/ml, Karpas-1106P target cells (human CD19 antigen [3]): 16% | % max. cell kill at 10 ug/ml, Nalm-6 target cells (human CD19 antigen [3]): 17% | % max. cell kill at 10 ug/ml, Namalwa target cells (human CD19 antigen [3]): 4% | % max. cell kill at 10 ug/ml, Oci-LY19 target cells (human CD19 antigen [3]): 6% | % max. cell kill at 10 ug/ml, RL target cells (human CD19 antigen [3]): 15% | % max. cell kill at 10 ug/ml, Raji target cells (human CD19 antigen [3]): 26% | % max. cell kill at 10 ug/ml, Toledo target cells (human CD19 antigen [3]): 12% | ADCC EC50, Daudi target cells (human CD19 antigen [3]): 0.0576 ng/mL | ADCC EC50, Farage target cells (human CD19 antigen [3]): 0.0927 ng/mL | ADCC EC50, Karpas-1106P target cells (human CD19 antigen [3]): 0.533 ng/mL | ADCC EC50, RL target cells (human CD19 antigen [3]): 0.0393 ng/mL | ADCC EC50, Raji target cells (human CD19 antigen [3]): 0.012 ng/mL | ADCC EC50, Toledo target cells (human CD19 antigen [3]): 0.0545 ng/mL

B10: 3C3 affinity matured Fab (16C4 variant) (Fab, V domains shown)
VH: B3 VH with L53P
VL: B3 VL with T31H, M37I, G59Y, Q93A, T95S, R97E, F100I
notes: Fab
EC50 (read off the curve) (human CD19 antigen [6]): ~300 ng/mL | EC50 (read off the curve) (human CD19 antigen [4]): ~400 ng/mL

More lines, main results first:

EC50 (read off the curve) (human CD19 antigen [1]): ~200 ng/mL | EC50 (read off the curve) (human CD19 antigen [2]): ~80 ng/mL
B1: Chimeric HB12B antibody comprising HB12B VH and HB12B VK (antibody, human IgG1, V domains shown)
VH: QVQLQQSGPELVKPGASVKISCKASGYAFSSSWMNWVIQRPGQGLEWIGRIYPGDGDTNYNGKFKGKATLTADKSSSTAYMQLSSLTSVDSAVYFCARSGFITTVLDFDYWGHGTTLTVSS
VL: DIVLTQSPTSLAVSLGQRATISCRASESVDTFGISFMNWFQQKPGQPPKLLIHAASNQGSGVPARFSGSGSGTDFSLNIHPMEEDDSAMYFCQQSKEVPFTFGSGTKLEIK
notes: also called chHB12B; chimeric anti-CD19 antibody

ADCC EC50, Daudi target cells (human CD19 antigen [3]): 0.0031 ng/mL | ADCC EC50, Farage target cells (human CD19 antigen [3]): 0.0141 ng/mL | ADCC EC50, Karpas-422 target cells (human CD19 antigen [3]): 0.0181 ng/mL | ADCC EC50, Karpas-1106P target cells (human CD19 antigen [3]): 0.009 ng/mL | ADCC EC50, Nalm-6 target cells (human CD19 antigen [3]): 0.0199 ng/mL | ADCC EC50, Namalwa target cells (human CD19 antigen [3]): 0.012 ng/mL | ADCC EC50, Oci-LY19 target cells (human CD19 antigen [3]): 0.0163 ng/mL | ADCC EC50, RL target cells (human CD19 antigen [3]): 0.0073 ng/mL | ADCC EC50, Raji target cells (human CD19 antigen [3]): 0.003 ng/mL | ADCC EC50, Toledo target cells (human CD19 antigen [3]): 0.0075 ng/mL
B2: afucosylated 16C4 anti-CD19 antibody (antibody, human IgG1, V domains shown)
VH: B3 VH with V32S, L53P
VL: B3 VL with P58Q, T95S, R97E
modifications: afucosylated Fc N-glycan (as for 3649-aFuc)
% max. cell kill at 10 ug/ml, DB target cells (human CD19 antigen [3]): 34% | % max. cell kill at 10 ug/ml, Daudi target cells (human CD19 antigen [3]): 50% | % max. cell kill at 10 ug/ml, Farage target cells (human CD19 antigen [3]): 48% | % max. cell kill at 10 ug/ml, Granta-519 target cells (human CD19 antigen [3]): 6% | % max. cell kill at 10 ug/ml, Karpas-422 target cells (human CD19 antigen [3]): 62% | % max. cell kill at 10 ug/ml, Karpas-1106P target cells (human CD19 antigen [3]): 59% | % max. cell kill at 10 ug/ml, Nalm-6 target cells (human CD19 antigen [3]): 35% | % max. cell kill at 10 ug/ml, Namalwa target cells (human CD19 antigen [3]): 23% | % max. cell kill at 10 ug/ml, Oci-LY19 target cells (human CD19 antigen [3]): 47% | % max. cell kill at 10 ug/ml, RL target cells (human CD19 antigen [3]): 45% | % max. cell kill at 10 ug/ml, Raji target cells (human CD19 antigen [3]): 43% | % max. cell kill at 10 ug/ml, Toledo target cells (human CD19 antigen [3]): 48%

ADCC EC50, Daudi target cells (human CD19 antigen [3]): 0.0576 ng/mL | ADCC EC50, Farage target cells (human CD19 antigen [3]): 0.0536 ng/mL | ADCC EC50, Karpas-422 target cells (human CD19 antigen [3]): 0.0442 ng/mL | ADCC EC50, Karpas-1106P target cells (human CD19 antigen [3]): 0.0142 ng/mL | ADCC EC50, Nalm-6 target cells (human CD19 antigen [3]): 0.0605 ng/mL | ADCC EC50, Namalwa target cells (human CD19 antigen [3]): 0.04 ng/mL | ADCC EC50, Oci-LY19 target cells (human CD19 antigen [3]): 0.0518 ng/mL | ADCC EC50, RL target cells (human CD19 antigen [3]): 0.0194 ng/mL | ADCC EC50, Raji target cells (human CD19 antigen [3]): 0.009 ng/mL | ADCC EC50, Toledo target cells (human CD19 antigen [3]): 0.0155 ng/mL
B6: afucosylated 3649 anti-CD19 antibody (antibody, human IgG1, V domains shown)
VH: B3 VH with V32S, L53P, V62G, R106L
VL: B3 VL with E54A, P58Q, T95S, R97E
modifications: complex N-glycoside-linked sugar chains linked to Asn297 of the Fc region in which fucose is not bound to N-acetylglucosamine in the reducing end
% max. cell kill at 10 ug/ml, DB target cells (human CD19 antigen [3]): 42% | % max. cell kill at 10 ug/ml, Daudi target cells (human CD19 antigen [3]): 51% | % max. cell kill at 10 ug/ml, Farage target cells (human CD19 antigen [3]): 48% | % max. cell kill at 10 ug/ml, Granta-519 target cells (human CD19 antigen [3]): 9% | % max. cell kill at 10 ug/ml, Karpas-422 target cells (human CD19 antigen [3]): 64% | % max. cell kill at 10 ug/ml, Karpas-1106P target cells (human CD19 antigen [3]): 59% | % max. cell kill at 10 ug/ml, Nalm-6 target cells (human CD19 antigen [3]): 39% | % max. cell kill at 10 ug/ml, Namalwa target cells (human CD19 antigen [3]): 25% | % max. cell kill at 10 ug/ml, Oci-LY19 target cells (human CD19 antigen [3]): 54% | % max. cell kill at 10 ug/ml, RL target cells (human CD19 antigen [3]): 46% | % max. cell kill at 10 ug/ml, Raji target cells (human CD19 antigen [3]): 44% | % max. cell kill at 10 ug/ml, Toledo target cells (human CD19 antigen [3]): 53%

EC50 (read off the curve) (human CD19 antigen [1]): ~200 ng/mL | EC50 (read off the curve) (human CD19 antigen [2]): ~70 ng/mL
B8: humanized anti-CD19 antibody #1 comprising HB12B-(3-72/JH4) VH and HB12B-364987 VK (antibody, human IgG1, V domains shown)
VH: B3 VH with V32S, L53P, V62G, R106L
VL: B3 VL with E54A, P58Q, Y91F, T95S, R97E
notes: Human IgG1/kappa constant regions; also called humanized HB12B antibody #1

EC50 (read off the curve) (human CD19 antigen [2]): ~80 ng/mL
B9: humanized anti-CD19 antibody #2 comprising HB12B-(3-72/JH4) VH, HB12B-3649 VK, and IgG1 heavy chain constant region (antibody, V domains shown)
VH: B3 VH with V32S, L53P, V62G, R106L
VL: B3 VL with E54A, P58Q, T95S, R97E
notes: also called humanized HB12B antibody #2

EC50 (read off the curve) (human CD19 antigen [5]): ~1000 ng/mL
B11: 64D4 affinity matured Fab (16C4 variant, VH CDR2 Pro > Leu at 52A) (Fab, V domains shown)
VH: B3 VH with V32S
VL: B3 VL with P58Q, T95S, R97E
notes: Fab with human γ1 CH1 and human kappa constant domain; position is Kabat
